Substrate in this data set: NCCc1c[nH]cn1
Nature of the data set: purified protein. Type of data set: biochemical, Pimelobacter simplex.

B1: histamine dehydrogenase (HADH) (Pimelobacter simplex) (protein)
chain: MTEQPAVAAPYDVLFEPVQIGPFTTKNRFYQVPHCNGMGYRDPSAQASMRKIKAEGGWSAVCTEQVEIHATSDIAPFIELRIWDDQDLPALKRIADAIHEGGGLAGIELAHNGMNAPNQLSRETPLGPGHLPVAPDTIAPIQARAMTKQDIDDLRRWHRNAVRRSIEAGYDIVYVYGAHGYSGVHHFLSKRYNQRTDEYGGSLENRMRLLRELLEDTLDECAGRAAVACRITVEEEIDGGITREDIEGVLRELGELPDLWDFAMGSWEGDSVTSRFAPEGRQEEFVAGLKKLTTKPVVGVGRFTSPDAMVRQIKAGILDLIGAARPSIADPFLPNKIRDGRLNLIRECIGCNICVSGDLTMSPIRCTQNPSMGEEWRRGWHPERIRAKESDARVLVVGAGPSGLEAARALGVRGYDVVLAEAGRDLGGRVTQESALPGLSAWGRVKEYREAVLAELPNVEIYRESPMTGDDIVEFGFEHVITATGATWRTDGVARFHTTALPIAEGMQVLGPDDLFAGRLPDGKKVVVYDDDHYYLGGVVAELLAQKGYEVSIVTPGAQVSSWTNNTFEVNRIQRRLIENGVARVTDHAVVAVGAGGVTVRDTYASIERELECDTVVMVTARLPREELYLDLVARRDAGEIASVRGIGDAWAPGTIAAAVWSGRRAAEEFDAVLPSNDEVPFRREVTQLA
Broadly, the Km is the concentration of substrate that gives half-maximal velocity. A word on the kcat: it is the maximal rate divided by the concentration of active sites. Regarding B1, the Km was 24 µM and the kcat turned out to be 9.8 s⁻¹.
